This experiment concerns the target T1, human transferrin receptor (human, UniProt P02786 89-760, limits assumed).
T1 construct: also called TfR Human; transferrin receptor 1
The experiment can be described thus: MST (Monolith NT.115), dye-labelled protein, receptor titrated. The procedure: First, 100 μl of dye that specifically binds to a hexa-His tag (RED-tris-NTA 2nd Generation Dye) was prepared at a concentration of 50 nM, along with 100 μl of the produced protein at a concentration of 200 nM, followed by mixing the same and incubating at room temperature for 30 minutes. The incubated product was centrifuged at 13000 rpm for 10 minutes at 4° C. by a centrifuge, thus to separate the supernatant and obtain a dye-labeled protein.
Then, 25 μl of 9.65 μM transferrin receptor was added to the 1st PCR tube; 10 μl of PBS-T (PBS+0.5% tween 20) buffer was added to 2nd to 16th PCR tubes; 10 μl of transferrin in the 1st PCR tube was transferred to the 2nd PCR tube; and 10 μl was again transferred from the 2nd PCR tube to the 3rd PCR tube. Likewise, this procedure was continued up to the 16th tube thus to perform ½ dilution in a sequential order so that each of the 2nd to 16th PCR tubes becomes 20 μl.
Thereafter, 10 μl of the dye-labeled protein was added to each PCR tube, and the reaction was performed at room temperature for 1 hour.

T1 sequence (P02786 89-760 limits assumed): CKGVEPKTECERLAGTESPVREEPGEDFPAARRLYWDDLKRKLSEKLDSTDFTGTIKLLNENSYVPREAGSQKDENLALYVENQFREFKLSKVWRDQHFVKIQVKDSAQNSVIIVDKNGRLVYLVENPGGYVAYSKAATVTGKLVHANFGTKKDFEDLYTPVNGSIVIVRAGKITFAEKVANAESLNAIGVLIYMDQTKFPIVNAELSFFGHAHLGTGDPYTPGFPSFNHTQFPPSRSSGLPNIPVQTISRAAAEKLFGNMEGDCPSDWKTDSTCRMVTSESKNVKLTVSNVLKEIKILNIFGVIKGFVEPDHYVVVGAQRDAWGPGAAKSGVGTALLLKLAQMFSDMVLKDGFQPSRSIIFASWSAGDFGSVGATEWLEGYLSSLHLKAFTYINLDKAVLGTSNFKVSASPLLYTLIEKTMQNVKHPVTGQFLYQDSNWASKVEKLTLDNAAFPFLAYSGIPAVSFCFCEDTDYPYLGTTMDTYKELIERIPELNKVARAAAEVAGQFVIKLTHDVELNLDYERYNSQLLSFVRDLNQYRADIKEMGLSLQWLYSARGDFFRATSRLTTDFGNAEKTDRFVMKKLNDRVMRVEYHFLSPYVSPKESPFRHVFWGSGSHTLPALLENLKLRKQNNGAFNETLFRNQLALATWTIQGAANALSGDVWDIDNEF

B1: Din-gp100-huHF (other)
chain: MHHHHHHEFTTASTSQVRQNYHQDSEAAINRQINLELYASYVYLSMSYYFDRDDVALKNFAKYFLHQSHEEREHAEKLMKLQNQRGGRIFLQDIKKPDCDDWESGLNAMECALHLEKNVNQSLLELHKLATDKNDPHLCDFIETHYLNEQVKAIKELGDHVTNLRKVPRNQDWLKMGAPESGLAEYLFDKHTLGDSDNES
modifications: One monomer given; 24 monomers self-assemble. His tag carried RED-tris-NTA dye in MST.
notes: Self-assembled 24-mer; built from the site; also called gp100-huHF, TSA insertion site Din (the middle of D helix)
In the case of B1, the equilibrium dissociation constant (Kd) – broadly, the free concentration of one partner at which half of the binding sites on the other are occupied at equilibrium, for simple one-to-one binding – turned out to be 29.3 nM.

B2: Ein-gp100-huHF (other)
chain: MHHHHHHEFTTASTSQVRQNYHQDSEAAINRQINLELYASYVYLSMSYYFDRDDVALKNFAKYFLHQSHEEREHAEKLMKLQNQRGGRIFLQDIKKPDCDDWESGLNAMECALHLEKNVNQSLLELHKLATDKNDPHLCDFIETHYLNEQVKAIKELGDHVTNLRKMGAPESGLAEYLFDKHKVPRNQDWLTLGDSDNES
notes: Self-assembled 24-mer; built from the site; also called gp100-huHF, TSA insertion site Ein (the middle of E helix)
As for B2, the equilibrium dissociation constant (Kd) was 6.28 nM. Against the preceding molecule, the Kd is about 4.7-fold lower.

Values taken from patent publication US20240150417A1 (CELLEMEDY, published 2024).
